The record followed here is patent US7778779.

The series deals with T1, 19-residue peptide comprising amino acids 788-806 of human HIF-1α, Q16665.
T1 chain: DESGLPQLTSYDCEVNAPI

B1: FIH (Factor Inhibiting HIF), human (protein)
chain: MAATAAEAVASGSGEPREEAGALGPAWDESQLRSYSFPTRPIPRLSQSDPRAEELIENEEPVVLTDTNLVYPALKWDLEYLQENIGNGDFSVYSASTHKFLYYDEKKMANFQNFKPRSNREEMKFHEFVEKLQDIQQRGGEERLYLQQTLNDTVGRKIVMDFLGFNWNWINKQQGKRGWGQLTSNLLLIGMEGNVTPAHYDEQQNFFAQIKGYKRCILFPPDQFECLYPYPVHHPCDRQSQVDFDNPDYERFPNFQNVVGYETVVGPGDVLYIPMYWWHHIESLLNGGITITVNFWYKGAPTPKRIEYPLKAHQKVAIMRNIEKMLGEALGNPQEVGPLLNTMIKGRYN
Take B1: the “hydroxylation of the peptide (mass spectrometry of HPLC purified material)” value is recorded as “a mass difference of +8Da of the doubly charged ions, corresponding to +16Da in the peptide (oxygen)”.
